Tests used:
Lrp (Escherichia coli) = assay: EMSA
[1] = test system: Lrp;MBP-RctB (Escherichia coli;Vibrio cholerae); assay: EMSA; conditions: scale: fold higher RctB affinity than to naked crtS

crtS (153 bp with ~100 bp lambda flanks)
Kd (Lrp (Escherichia coli)): 5.5 nM
binding signal [1]: 10

From article PMC6139311
